Drawing on paper PMC4072508, “Genome-Wide Prediction and Validation of Peptides That Bind Human Prosurvival Bcl-2 Proteins” (PLoS Computational Biology, 2014), this text covers SPOT signal as a fraction of Bim BH3's signal on the same receptor and array and Kd for four molecules.

As a reminder, the Kd is the equilibrium constant for the complex coming apart.

Some results are limits rather than exact numbers.

The target in experiment [1] is Bcl-2, P10415. The experiment is described as follows: peptide SPOT array, c-Myc-tagged receptor at 1 uM or 100 nM, anti-c-Myc-Cy3.
Target sequence in this assay (P10415 1-217): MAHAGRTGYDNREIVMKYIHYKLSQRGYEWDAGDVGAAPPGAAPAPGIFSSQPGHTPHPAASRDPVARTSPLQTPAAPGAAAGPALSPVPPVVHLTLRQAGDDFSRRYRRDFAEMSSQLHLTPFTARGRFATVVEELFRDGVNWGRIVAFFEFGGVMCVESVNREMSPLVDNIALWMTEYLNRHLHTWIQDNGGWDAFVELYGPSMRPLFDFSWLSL
The target of experiment [2] is T1, Bcl-w, Q92843.
T1 chain: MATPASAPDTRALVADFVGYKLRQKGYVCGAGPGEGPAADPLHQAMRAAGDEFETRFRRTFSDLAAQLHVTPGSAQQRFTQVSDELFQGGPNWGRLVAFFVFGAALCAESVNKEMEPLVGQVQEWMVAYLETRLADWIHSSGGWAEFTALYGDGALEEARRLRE
Described as above.

Experiment [3] concerns the target Bcl-xL, Q07817. The experiment is described as above.
Experiment [4] addresses T2, Bfl-1, Q16548.
T2 chain: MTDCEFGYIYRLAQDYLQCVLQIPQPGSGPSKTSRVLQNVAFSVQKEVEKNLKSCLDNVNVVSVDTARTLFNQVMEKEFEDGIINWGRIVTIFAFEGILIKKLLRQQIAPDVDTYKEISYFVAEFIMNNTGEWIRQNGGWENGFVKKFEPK
The experiment is described as above.

Experiment [5] has as its target T3, Mcl-1, Q07820.
T3 chain: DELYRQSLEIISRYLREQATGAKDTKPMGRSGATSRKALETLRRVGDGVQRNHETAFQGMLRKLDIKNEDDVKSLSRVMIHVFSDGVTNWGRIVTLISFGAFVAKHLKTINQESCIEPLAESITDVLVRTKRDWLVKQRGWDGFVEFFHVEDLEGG
The experiment is described as above.

In experiment [6] the target is T4, Bcl-2, P10415.
T4 chain: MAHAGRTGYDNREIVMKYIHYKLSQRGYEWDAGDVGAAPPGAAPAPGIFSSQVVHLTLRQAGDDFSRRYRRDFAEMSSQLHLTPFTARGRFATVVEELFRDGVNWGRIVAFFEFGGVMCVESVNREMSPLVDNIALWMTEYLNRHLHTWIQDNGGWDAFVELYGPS
The experiment is described as follows: fluorescence polarisation, direct titration of receptor into 10 nM labelled peptide.

The target of experiment [7] is T1, Bcl-w, Q92843. Described as above.
Experiment [8] has as its target Bcl-xL, Q07817. Described as above.
For experiment [9], the target named is T2, Bfl-1, Q16548. Described as above.
Experiment [10] deals with T3, Mcl-1, Q07820. The description is as above.
For experiment [11], the target named is PXT1 BH3-like peptide (human). Description: fluorescence polarisation; direct binding: 10 nM FAM-labeled peptide, receptor serially diluted; 25°C; 20 mM NaPO4, 50 mM NaCl, 1 mM EDTA, 0.001% Triton X, pH 7.8; single-site binding model.

Bcl-xL, Q07817, sequence (Q07817 1-209): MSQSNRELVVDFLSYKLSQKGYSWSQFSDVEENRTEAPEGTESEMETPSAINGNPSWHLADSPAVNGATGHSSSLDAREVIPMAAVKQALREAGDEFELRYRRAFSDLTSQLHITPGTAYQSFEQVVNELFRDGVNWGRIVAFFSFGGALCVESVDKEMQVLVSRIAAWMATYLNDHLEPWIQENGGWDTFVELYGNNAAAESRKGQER

FTGNNTAVQELKRVSEQFTATFRRKA [TUBB4Q]: the SPOT signal as a fraction of Bim BH3's signal on the same receptor and array in experiment [1] came out at 0.19; in experiment [2], 0.92; in experiment [3] it was 0.93; in [4], 0.8; in experiment [5] it was 0.41. The Kd in experiment [6] was 1410 nM; in experiment [7], 2490 nM; in [8], 2050 nM; in experiment [9] it was more than 4660 nM; in experiment [10], 1460 nM.
Turning to TDENKKVGLALKDLAKQYSDRLECCE [NUB1], the SPOT signal as a fraction of Bim BH3's signal on the same receptor and array in [1] was 0.01; in [2] it was 0.02; in experiment [3], 0.11; in experiment [4], 0.02; in experiment [5] it was 0.02. The Kd in [6] is 562 nM; in experiment [7] it was more than 4000 nM; in experiment [8], 2720 nM; in experiment [9], more than 4000 nM; in experiment [10], more than 10000 nM.

B1: Bcl-w (natural protein)
chain: MATPASAPDTRALVADFVGYKLRQKGYVCGAGPGEGPAADPLHQAMRAAGDEFETRFRRTFSDLAAQLHVTPGSAQQRFTQVSDELFQGGPNWGRLVAFFVFGAALCAESVNKEMEPLVGQVQEWMVAYLETQLADWIHSSGGWAEFTALYGDGALEEARRLREGNWASVRTVLTGAVALGALVTVGAFFASK
In experiment [11], B1 had a Kd of less than 30 nM.

B2: Bfl-1 (natural protein)
chain: MTDCEFGYIYRLAQDYLQCVLQIPQPGSGPSKTSRVLQNVAFSVQKEVEKNLKSCLDNVNVVSVDTARTLFNQVMEKEFEDGIINWGRIVTIFAFEGILIKKLLRQQIAPDVDTYKEISYFVAEFIMNNTGEWIRQNGGWENGFVKKFEPKSGWMTFLEVTGKICEMLSLLKQYC
The molecule B2 showed a Kd in [11] of less than 30 nM.
